Assays:
[1] = test system: GABA neurons in mesencephalic cultures; test: 14C-GABA uptake in mesencephalic cultures; assay type: cell-based, rat; conditions: cultures grown with GDNF for 16 days
Procedure: FIGS. 21A-C depicts the specificity of GDNF to dopaminergic neurons. Cultures were established as described in Example 1B. GDNF was added on the day of plating. A. ^3H-DA uptake was measured after seven days in vitro. B. ^14C-GABA uptake was measured after eight days in vitro. Cells were incubated and treated as for ^3H-DA uptake, except the uptake buffer consists of Kreb-Ringer's phosphate buffer, pH 7.4, containing 5.6 mM glucose, 1.3 mM EDTA, 10 μM amino-oxyacetic acid (to prevent GABA breakdown), 2 mM β-alanine (to inhibit glia uptake of GABA) and 0.1 μM ^14C-GABA (150 mCi/mmole, New England Nuclear, Boston, Mass.). In the presence of 1 mM diaminobutyric acid (DABA), a potent inhibitor of ^14C-GABA uptake into GABA neurons, the ^14C-uptake was reduced to 10%. Control values in the presence of DABA were subtracted from experimental values.
H^3-dopamine (^3H-DA) and ^14C-GABA uptake were measured in sister cultures of mesencephalic cells which had been grown with various concentrations of GDNF for 15 and 16 days, respectively. As described above, GDNF enhanced the ^3H-DA uptake capacity of mesencephalic dopamine neurons ˜150% over control without GDNF (FIG. 21A). […] This is also illustrated by the increase in the ^3H-DA/^14C-GABA uptake ratio calculated (FIG. 21C).

[2] = test system: serotonergic neurons in rat embryo mesencephalic cultures; test: 3H-serotonin uptake in mesencephalic cultures; assay type: cell-based; conditions: uptake after 6 days in vitro
Procedure: FIGS. 24A-B depicts the specificity of GDNF to dopaminergic neurons. Cultures were prepared as described in Example 1B. GDNF was added on the day of plating, and uptake was measured after 6 days in vitro. A depicts dopamine uptake and B depicts serotonin uptake.
In the presence of 10 μM citalpram (obtained from Dr. C. Mytilineou, Mount Sinai School of Medicine), a known potent inhibitor of serotonin uptake in serotonin neurons, the ^3H-serotonin uptake was reduced to 15%.

[3] = test system: sympathetic neurons from chick embryo sympathetic chain ganglia; test: Neuronal survival assay (MTT), sympathetic chain ganglia; assay type: cell-based
Procedure: Cultures of primary check embryo ciliary ganglia and sympathetic chain ganglia were prepared as previously described (Collins 1978 Develop. Biol. 65:50; Manthorpe et al. 1986 Develop. Brain Res. 25:191). Briefly, ciliary or sympathetic ganglia were removed from fertile, pathogen free chicken eggs that had been incubated for 8 and 10 days, respectively, at 38° C. in a humidified atmosphere. The ganglia were chemically dissociated by exposure first to Hands' Balanced Salt Solution without divalent cations, containing 10 mM HEPES buffer pH 7.2 for 10 min at 37° C., and then by exposure to a solution of 0.125% bactotrypsin 1:250 (Difco, Detroit, Mich.) in Hanks' Balanced Salt Solution modified as above for 12 min at 37° C. Trypsinization was stopped by addition of fetal calf serum to a final concentration of 10%.
After this treatment, ganglia were transferred to a solution consisting of Dulbecco's high glucose Modified Eagle Medium without bicarbonate containing 10% fetal calf serum and 10 mM HEPES, pH 7.2 and were mechanially dissociated by trituration approximately 10 times through a glass Pasteur pipet whose opening had been fire polished and constricted to a diameter such that it took 2 seconds to fill the pipet.
The dissociated ganglia were then plated in culture medium (Dulbecco's Modified Eagle Medium supplemented with 10% fetal calf serum, 4 mM glutamine, 60 mg/L penicillin-G, 25 mM HEPES, pH 7.2) in 100 mm diameter tissue culture dishes (40 dissociated ganglia per dish) for three hours. […] After three hours, the nonadherent nerve cells were collection by centrifugation, resuspended in culture medium, and plated in 50 μl per well onto half area 96 well microtiter tissue culture plates at a density of 1500 nerve cells per well. The microtiter wells had been previously exposed to a 1 mg/ml solution of poly-L-ornithine in 10 mM sodium borate, pH 8.4 overnight at 4° C., washed in distilled water and air dried.
Ten μl of a serial dilution of the sample to be assayed for neurotrophic activity was added to each well and the dishes were incubated for 20 hours at 37° C. in a humidified atmosphere containing 7.5% CO2. After 18 hours for ciliary and 40 hours for sympathetic ganglia, 15 μl per well of a 1.5 mg/ml solution of the tetrasolium dye MTT in Dulbecco's high glucose Modified Eagle Medium without bicarbonate containing 10 mM HEPES, pH 7.2, was added and the cultures placed in the 37° C. incubator for 4 hours. Then, 75 μl of a solution of 6.7 ml of 12 M HCl per liter of isopropanol was added and the contents of each well triturated 30 times to break open the cells and suspend the dye. The absorbance of 570 nm was determined relative to a 690 nm reference for each well using an automatic microtiter plate reader (Dynatech, Chantilly, Va.). The absorbance of wells which had not received any neurotrophic agent (negative controls) was substracted from the absorbance of sample-containing wells. The resulting absorbance is proportional to the number of living cells in each well, defined as those nerve cells capable of reducing the dye. The number of trophic units of neurotrophic activity was defined as the reciprocal of the dilution that gave 50% of maximal survival of nerve cells. Specific activity was determined by dividing the number of trophic units by the amount of protein present in the sample.

[4] = test system: nigral dopaminergic nerve cells; test: Experimental Parkinsonism in monkeys treated with MPTP; assay type: in vivo, monkeys (Cebus apella); conditions: intraventricular minipump, 14 days, MPTP 0.6 mg/kg
Procedure: A stainless-steel cannula may be implanted into the right lateral ventricle and connected to a subcutaneously-implanted osmotic minipump (Alzet 2002). The minipump contains GDNF at various concentrations or its diluent as a negative control. The pump delivers 0.5 μl/h for 14 days. Two days after the cannula-pump implant, monkeys (Cebus apella) receive an injection of 0.6 mg/kg of MPTP into the right carotid artery. Six weeks after the initial implant, animals are perfused with saline and the brain rapidly removed. The brain is dissected on ice and punches of tissue are removed from the caudate nucleus and putamen. The substantia nigra is placed in fixative. The caudate-putamen tissue is analyzed by HPLC-EC for dopamine, the substantia nigra is processed for tyrosine hydroxylase (TH) immunoreactivity.
Degeneration of nigral dopaminergic nerve cells and their axonal projections to the caudate/putamen cause experimental Parkinsonism in this monkey model. There are several experimental indications that GDNF may prevent or reduce the severity of this neuronal degeneration. […] This indicates sparing by GDNF of nigral dopaminergic nerve cells from the toxic effects of MPTP. […] This indicates sparing by GDNF of the axonal projections of the nigral dopaminergic neurons from the toxic effects of MPTP. […]

[5] = test system: dopaminergic neurons in rat embryo (E16) mesencephalic cell cultures; test: Bioassay for dopaminergic neurotrophic activity: 3H-dopamine uptake in dissociated mesencephalic cell cultures; assay type: cell-based; conditions: cultures grown with GDNF for 15 days

B1: glial cell line-derived neurotrophic factor (protein)
chain: SNMPEDYPDQFDDVMDFIQATIKRLKRSPDKQMAVLPRRERNRQAAAANPENSRGKGRRGQRGKNRGCVLTAIHLNVTDLGLGYETKEELIFRYCSGSCDAAETTYDKILKNLSRNRRLVTDKVGQACCRPIAF
notes: dopaminergic neurotrophic protein purified from serum-free conditioned medium of rat B49 glioblastoma cells; disulfide-bonded dimer
14C-GABA uptake higher than control [1]: ~20%
effect on serotonin uptake [2]: fails to increase the uptake of serontonin
bioactivity in sympathetic neuron survival bioassay [3]: promotes the survival in culture of symphathetic nerve cells
ED50 for sympathetic neuron survival ([3]; chick embryo (E10) sympathetic ganglia): about 5 ng/ml
loss of dopamine content in the caudate/putamen [4]: may also prevent the loss of dopamine content in the caudate/putamen
3H-DA uptake capacity over control without GDNF [5]: ~150%
